This note sets out measurements from the RNAGym collection of RNA variant scans (doi:10.1093/molbev/msab373).

B1: Azoarcus group I ribozyme (parent)
chain: GUGCCUUGCGCCGGGAAACCACGCAAGGGAUGGUGUCAAAUUCGGCGAAACCUAAGCGCCCGCCCGGGCGUAUGGCAACGCCGAGCCAAGCUUCGGCGCCUGCGCCGAUGAAGGUGUAGAGACUAGACGGCACCCACCUAAGGCAAACGCUAUGGUGAAGGCAUAGUCCAGGGAGUGGCGAAAGUCACACAAACCGG

In this data set the parent is B1. Put plainly: reverse-splicing fitness (ratio to wild type); higher = more active; in vitro selection; Mg2+ level not given. Summed up:
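An in vitro group I ribozyme library with randomized positions was T7-transcribed and gel-purified. In triplicate, 10 pmol RNA in EPPS pH 7.5 was reacted with 50 pmoles of a 30-nt RNA substrate for 1 h at 37 °C across several added MgCl2 levels (1–48 mM), then stopped with EDTA. Products were reverse transcribed from a substrate-complementary primer, PCR-amplified and sequenced (HiSeq 4000). Fitness is a variant's read proportion after selection over that before, normalised to wild type.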
For C82A A111C A120U C150A C169A U176C, the reverse-splicing fitness is 0.00418.
As for C82A A111C A120U C150A C169A U176A, the reverse-splicing fitness came to 0.00546.
The result for C82U A120C A145C C150G C169U reads 0.0107; that for C82A A111U A120G A145C C150U C169A U176G, 0.00508; that for C82A A111U A120G C169A U176G, 0.00506.
The result for A111U A120G A145U C150A U176C reads 0.018; that for C82U A120G A145C C150A C169G, 0.00758; that for C82A A111C A145C C150G C169G U176C, 0.00759.
The result for A111C A120G A145C C150G C169A reads 0.015.
Take C82U A111G C150G U176G: the reverse-splicing fitness was 0.00391.
The result for A111G C150A U176G reads 0.103; that for A120U A145U C150G C169U, 0.0429; that for C82U A111G A145G C150A C169U, 0.01.
Then A111G A120U C169U U176G, with 0.00411; and C82U A111U A120C A145C C150U C169G U176C, with 0.00936; and C82A A111U A145C C150A C169U U176G, with 0.00705.
The result for C82A A111U A120G C150A C169A reads 0.0108; that for C82A A120U C150U C169A U176A, 0.00392; that for C82A C150U C169G U176G, 0.00542.
With C82A A111C A145C C150A C169U U176G, the reverse-splicing fitness was found to be 0.00856.
With C82G A111G C150U C169G U176G, the reverse-splicing fitness was 0.00611.
Then C82A A120U A145G C150A U176G, with 0.00391; and A120C A145C U176G, with 0.266.
Then C82U A111C A120G A145U C150A C169G U176C, with 0.0126; and A111U A120C C150A C169U, with 0.0239; and C82G A120U A145C C150U C169G U176C, with 0.00277.
For the variant C82A A111G A120U A145C C169G, the reverse-splicing fitness was 0.00315.
With A111U A120C A145G C169G U176A, the reverse-splicing fitness was 0.019.
Then C82A A111U A120G C150U U176C, with 0.0178; and C82A A111G C150A C169U U176C, with 0.014; and C82G A111U A120C C150U C169A, with 0.0105.
The result for C82U A111G A120G A145U C150G C169U U176G reads 0.0048; that for C82U A111U A120C A145G C150A C169A, 0.0103.
Then C82G A111U A120C A145G C150A C169G U176A, with 0.0181.
With A111C A120C A145U C150G, the reverse-splicing fitness came out at 0.0621.
Consider C82U A111C A145U C150U U176A, for which the reverse-splicing fitness is 0.0489.
Then A111G A120G A145G C150A C169G U176G, with 0.00578; and C82G A111G A120U A145U C150A C169U U176A, with 0.00305; and C82U A111U A120U A145G C150U C169U U176G, with 0.00209.
Consider C82U A111G A120G A145U C169G U176C, for which the reverse-splicing fitness came out at 0.0118.
Turning to A111G C150U C169G, the reverse-splicing fitness was 0.0695.
Consider C82A A111U A120C A145C C150U C169U U176A, for which the reverse-splicing fitness amounted to 0.0144.
Then C82G A120G A145C U176G, with 0.00484; and C82G A111G A120C C150A C169A U176A, with 0.0223.
In the case of C82U A120C A145U C150U C169G, the reverse-splicing fitness worked out at 0.00708.
Then C82U A111C C150G C169U U176G, with 0.00577.
Then C82G A111C A120C C150G C169U U176C, with 0.0107; and A111U A120G A145C U176G, with 0.00566; and C82A A111C A120U C150G U176C, with 0.00623.
The result for C82U A111U A120G A145G C150A U176A reads 0.0093.
For the variant C82G A111G A120U A145C C169A U176A, the reverse-splicing fitness was 0.00186.
Regarding C82U A111C A145U C150A C169A U176A, the reverse-splicing fitness amounted to 0.0124.
Then C82G A120U A145U C150U C169A U176C, with 0.00197.
The result for C82G A111C A120U A145U C150U C169G U176A reads 0.00347.
The result for A111C A120G A145C C150U C169G U176C reads 0.0221; that for C82A A120C A145C C150G C169U U176C, 0.0105; that for C82A A111G A120U A145C C169U U176A, 0.00302.
On to C82G A111C A120C A145G C150U U176A, for which the reverse-splicing fitness was determined as 0.0138.
Then C82U A111C A120G A145C C150U, with 0.00818; and C82U A111G A120C C169U, with 0.0118.
Turning to C82A A145G U176C, the reverse-splicing fitness turned out to be 0.488.
Consider C82U A120U A145U C150U, for which the reverse-splicing fitness was found to be 0.106.
For C82U A120U A145U C150U C169G U176C, the reverse-splicing fitness came to 0.00299.
For the variant C82A A120C A145C C150G C169G U176A, the reverse-splicing fitness is 0.00969.
The result for A111C A120C A145U C150G C169A U176G reads 0.00619; that for A111C A120C A145U C150G C169A U176A, 0.0107.
For A111G A145C C150A C169U, the reverse-splicing fitness was determined as 0.0168.
The result for A111U A145C C150U C169G U176G reads 0.00741.
As to C82G A111G A120C A145U C150G C169U U176G, the reverse-splicing fitness turned out to be 0.00604.
The result for C82G A111G A145G C169G U176C reads 0.0231; that for A111G A120G A145G C150U C169A U176C, 0.0553.
Take C82U A111C C169G U176G: the reverse-splicing fitness came to 0.007.
Regarding C82U A111C A145C U176G, the reverse-splicing fitness came to 0.0186.
Turning to C82G A120C A145C C169G, the reverse-splicing fitness was 0.00864.
C82A A111U A145C C150A C169G U176C: the reverse-splicing fitness was determined as 0.0169.
Then C82G A111C A120C A145C C150U C169A U176C, with 0.00824; and A111G A145U C150A C169G U176C, with 0.0131.
The result for A111U A120U A145G C150U C169U reads 0.0617.
The result for C82G A111U A120G A145C C150U U176A reads 0.00941; that for A120G A145C U176G, 0.0166; that for C82G A111G A120C C169G, 0.00841.
Take A111G C150G C169U U176A: the reverse-splicing fitness was found to be 0.00683.
The result for C82U A111C A120C C150U C169U U176A reads 0.0178.
